The values that follow come from patent publication US7294496B1, “Cloned human lysophospholipase” (The Regents of the University of California, priority 2000, dated 2007).

Holding throughout (assay type): biochemical
Data set [1] in a line: LysoPLA activity assay (release of fatty acid from 14C-LysoPC). How it is done: (§1) The protein concentration was determined by the Bio-Rad protein assay, using bovine serum albumin (BSA) as standard. Protein purity was examined using 12% SDS-PAGE and Coomassie blue staining. LysoPLA activity was measured at 40° C. in the assay buier containing LysoPC, 100 mM Tris-HCl (pH 8.0) and 10 mM LMe. Cold 1-palmitoyl-sn-glycero-3-phosphorylcholine (125 μM, unless indicated otherwise) was mixed with 1-[14 C]palmitoyl-sn-glycero-3-phosphorylcholine (100,000 cpm) in a total volume of 0.5 ml. The assay was initiated by adding an aliquot of enzyme solution to the substrate mixture and incubating for the desired time. The released fatty acid was extracted by the modified Dole method and then quantified by scintillation counting. The PLA2 activity assay was carried out, using various ^14C-labeled phospholipid substrates under various conditions as given in the text. The rat brain iPLA2 was purified as described elsewhere (H. C. Yang et al., manuscript in preparation incorporated herein). Human recombinant cPLA2 was a gift from Drs. J. D. Sharp and R. M. Kramer at Lilly Laboratories. 1-[^14C]Palmitoyl-sn-glycero-3-phosphorylcholine and 1-palmitoyl-2-[1-^14C]palmitoyl-sn-glycerol-3-phosphorylcholine were purchased from Amersham. 1-Palmitoyl-2-[1-^14C]arachidonoyl-sn-glycerol-3-phosphorylcholine was purchased from DuPont-NEN. All unlabeled phospholipids were purchased from Avanti Polar Lipids. Triton X-100 (TX-100) and PIP2 were obtained from CalBiochem.
To investigate the catalytic properties of the hLy-soPLA, we first determined the specific activity of hLysoPLA as a function of substrate (1-palmitoyl LysoPC) concentration. […] There seems to be some cooperativity, since the data fit to the Hill equation (solid line in FIG. 3) with n=1.53 ? 0.08, kcat=1.34 ? 0.04 μmol/min/mg, and substrate at half-maximal saturation is 12.7±0.9 μM.
TX-100 is often used in the purification and stabilization of membrane-associated proteins. In addition, it is used to change the surface concentration of the substrate in the mixed-micelle assay for mechanistic studies. To determine the dependence of the enzyme activity on the substrate surface concentration, we measured the hLysoPLA activity under two conditions:
(1) the bulk LysoPC concentration (1.125 mM) was kept constant and the TX-100 concentration was varied (FIG. 4A);
(2) the bulk TX-100 concentration (1 mM) was kept constant and the LysoPC concentration was varied (FIG. 4B).
In addition, we have carried out detailed kinetic measurements and analysis to test the surface dilution kinetic model and results are shown in FIG. 4° C. The experimental data were fitted globally to Eq. 1 derived from the model in which hLysoPLA follows the two-step binding kinetics (Scheme 1). That is, hLysoPLA (E) binds first to the mixed-micellar surface (S) and then to the LysoPC substrate (A) presented on the surface.
[formula] [formula] Here, [LysoPC+TX-100] is the total molar concentration in the bulk solution, and {LysoPC®} is the molar fraction of the substrate on the mixed-micellar surface. Calculation of the amount of TX-100 in the micelle takes into account the amount of monomeric detergent in the solution, assuming the critical micelle concentration of TX-100 is 0.25 mM. The fitting parameter Ks represents the dissociation constant (k31/k1) for the mixed-micellar surface, Km represents the apparent Michaelis constant (=(k3+ k32)/k2) on the surface, and Vmax is the catalytic turnover rate.

Data set [2] can be described thus: PLA2 activity assay toward plasmenylcholine. How it is done: as §1
The sn-2 labeled PlsCho (plasmenylcholine or 1-O— (Z)-1P-alkenyl-2-arachidonoyl-sn-glycero-3-phosphocholine) was synthesized as follows. A total of 4 μmol [1-14C]arachidonic acid (from NEN, with specific activity […]) was diluted 10 times with cold arachidonic acid in 250 μl distilled methylene chloride (Fisher Scientific). To this 0.04 mmol p(N,N-dimethyl)amino pyridine (Aldrich) and 0.08 mmol 1,3-dicyclohexyl carbodiimide (Aldrich) were added to yield the arachidonoyl anhydride upon 1 h of stirring. Lysoplasmenylcholine (0.06 mmol, from Serdary) dissolved in 200 μl methylene chloride and 50 μl pyridine (Fisher Scienticc) was added to the arachidonoyl anhydride solution with 0.03 μmol dimethylaminopyridine and left stirring for 8 h. The reaction progress was monitored by thin layer chromatography (Merck) using a mobile phase of chloroform:methanol:triethyl amine:water (65:30:1.5:3.5), and retardation factors were 0.6 and 0.2 for PlsCho and LysoPlsCho, respectively. The separation of the product was carried out by preparative layer chromatography (Merck) in the above mobile system. The reaction yielded a total of 3.6 mg (7.7 μmol) of radiolabeled PlsCho (specific activity 0.18 μCi/μmol) by quantitative phosphate analysis.
(§2) When we first purified the mouse LysoPLA from P388D1 cells, no other enzymatic activities (PLA1, PLA2, acyltransferase, transacylase and esterase) were found. Therefore, it appears to be a LysoPL-specific LysoPLA. Similar results were obtained for the rat LysoPLA and the relative rates towards different LysoPL substrates were reported [Sugimoto et al., (1996) J. Biol. Chem. 271, 7705-11]. However, a recently sequenced rabbit enzyme that shares high sequence homology (approx. 97%) to the rat/mouse LysoPLA was reported to have both PLA2 and LysoPLA activities [Portilla, et al., […] J. Am. Soc.Nephrol. 9, 1178-86]. The specific activities, however, were only 10 nmol/min/mg for PLA2 activity and 20 nmol/min/mg for LysoPLA activity. The PLA2 activity was also reported to be selective for PlsCho substrate with arachidonic acid at the sn2 position. To determine whether hLysoPLA also expresses PLA2 activity, we have explored its ability to hydrolyze arachidonic acid labeled PlsCho as well as other phospholipid substrates under a variety of conditions.

Data set [3] in a line: PLA2 activity assay toward DPPC. As to conditions: for Activity: 100 mM Hepes. On the procedure: as §1, §2
Data set [4] is described as follows: PLA2 activity assay toward PAPC. The conditions noted are these: for Activity: 100 mM Hepes, pH 7.5, 80 μM Ca2+, 2 mM DTT, 0.1 mg/ml BSA. How it is done: as §1, §2
The mark [5] stands for this setting: Hill equation fit, pure LysoPC (FIG. 3).
Where [6] appears, read: global fit to surface dilution model, LysoPC/TX-100 mixed micelles.

B1: hLysoPLA: recombinant human brain lysophospholipase, single 25 kDa polypeptide of 230 amino acids (SEQ ID NO: 2), catalytic triad Ser-119, Asp-174, His-208 (protein, listed as Homo sapiens)
chain: MCGNNMSTPLPAIVPAARKATAAVIFLHGLGDTGHGWAEAFAGIRSSHIKYICPHAPVRPVTLNMNVAMPSWFDIIGLSPDSQEDESGIKQAAENIKALIDQEVKNGIPSNRIILGGFSQGGALSLYTALTTQQKLAGVTALSCWLPLRASLPQGPIGGANRDISILQCHGDCDPLVPLMFGSLTVEKLKTLVNPANVTFKTYEGMMHSSCQQEMMDVKQFIDKLLPPID
B1 returned a Hill coefficient n in data set [1] (Hill equation fit, activity vs 1-palmitoyl LysoPC concentration, 40° C. (FIG. 3)) of 1.53. The kcat is 1.34 µmol/min/mg in data set [1] (setting [5]); 1.6 µmol/min/mg in data set [1] (Michaelis-Menten fit, LysoPC 1.125 mM constant, TX-100 varied (FIG. 4A)); 1.7 µmol/min/mg in data set [1] (Michaelis-Menten fit, TX-100 1 mM constant, LysoPC varied (FIG. 4B)). Moreover, the “substrate at half-maximal saturation” value in data set [1] (setting [5]) was found to be 12.7 ± 0.9 µM. In addition, the Activity in data set [1] (LysoPC micelles (125 μM), 100 mM Tris, pH 8.0, 10 mM βMe) is 1.13 ± 0.03 µmol/min/mg; in data set [2] (PisCho sonicated vesicles (100 μM), 100 mM Tris, pH 8.0, 4 mM EGTA, 10 mM βMe) it was 0.0009 ± 0.0003 µmol/min/mg; in data set [2] (PisCho sonicated vesicles (100 μM), 100 mM Tris, pH 8.0, 150 mM NaCl, 3 mM MgCl2, 10 mM βMe), 0.0006 ± 0.0002 µmol/min/mg; in data set [2] (PisCho/TX-100 mixed micelles (100 μM:600 μM), 100 mM Hepes, pH 7.5, 10 mM βMe), 0.0024 ± 0.0004 µmol/min/mg; in data set [3] (DPPC/POPS sonicated vesicles (67 μM:33 μM), pH 7.5, 5 mM EDTA or Ca2+, 1 mg/ml BSA) it was less than 0.0001 µmol/min/mg; in data set [3] (DPPC/TX-100 mixed micelles (100 μM:400 μM), pH 7.5, 2 mM DTT, 5 mM EDTA), less than 0.0001 µmol/min/mg. Also, the Activity in data set [4] (PAPC/PIP2/TX-100 mixed micelles (97 μM:3 μM:400 μM)) and in data set [4] (PAPC/TX-100 mixed micelles (100 μM:400 μM)) was less than 0.0001 µmol/min/mg throughout. Further, the “Km (apparent Michaelis constant on the surface)” value in data set [1] (setting [6]) is 12.2±0.9 mol %. For the same molecule, the “Ks (dissociation constant for the mixed-micellar surface)” value in data set [1] (setting [6]) came out at 66 ± 7 µM. The Vmax in data set [1] (global fit to surface dilution model, LysoPC/TX-100 mixed micelles (FIG. 4C)) turned out to be 1.37 ± 0.05 µmol/min/mg. Besides, the “specific activity toward palmitoyl LysoPC” value in data set [1] (purified recombinant enzyme, His-Tag removed) was “about 1.3 μmol/min/mg”. For the same molecule, in data set [2] (mixed micelles or vesicles), the “activity toward PlsCho substrate labeled with [14C]arachidonic acid (in words)” value is “did not show any significant activity”. For the same molecule, the “PLA2 activity toward phosphatidylcholine substrates (in words)” value in data set [3] (DPPC substrates) and in data set [4] (PAPC substrates) was “no PLA2 activity was found” in each case.

Broadly, the Vmax is the rate approached at saturating substrate.
